Where a chain is given by its changes, count along the chain named. Names may count otherwise. Where two headings read alike, the source gives them in different places.
How the values were obtained:
[1] = biological target: T1, SNAP-Fbs (SNAP-wtFbs): human Fbs sugar binding domain, positions 113 to 296, wild type, SEQ ID NO: 2, fused to SNAP-tag (AGT variant, SEQ ID NO: 4), fusion SEQ ID NO: 3 (Homo sapiens, UniProt Q9UK22); experiment: Isothermal titration calorimetry of glycan / sialylglycopeptide binding to SNAP-Fbs in solution; conditions: ITC, low salt buffer (50 mM NaCl, 20 mM Tris-HCl, 1 mM EDTA, pH 7.5), 90 μM glycan into 9 μM Fbs, single site binding model
T1 construct: made in house; host or cells: E. coli, pSNAP-tag(T7)-2 vector
T1 sequence (Q9UK22 with tags, fused parts or gaps): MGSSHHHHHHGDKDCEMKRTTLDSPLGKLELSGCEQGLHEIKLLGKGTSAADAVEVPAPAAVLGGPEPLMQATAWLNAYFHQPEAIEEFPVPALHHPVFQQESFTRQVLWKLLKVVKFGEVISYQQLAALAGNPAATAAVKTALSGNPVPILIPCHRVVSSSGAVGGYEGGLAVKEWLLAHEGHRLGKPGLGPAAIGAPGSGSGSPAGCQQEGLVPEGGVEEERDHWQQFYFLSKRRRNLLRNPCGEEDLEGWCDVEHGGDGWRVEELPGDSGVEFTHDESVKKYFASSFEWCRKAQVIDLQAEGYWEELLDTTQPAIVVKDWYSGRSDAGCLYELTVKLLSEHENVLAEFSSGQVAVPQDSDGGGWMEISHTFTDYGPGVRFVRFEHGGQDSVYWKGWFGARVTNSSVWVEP
Protocol: Fbs binds to N-glycan and N-glycan with fucose modification at the reducing end of GlcNAc. Isothermal titration calorimetry was used to assay the interaction between Fbs and core structure glycans. Man3GlcNAc2 (M3N2) and Man3GlcNAc2 with (alpha 1-6) fucose modification at the reducing end of GlcNAc (M3N2F) were used as binding substrates (both substrates were purchased from Prozyme, Hayward, Calif. SNAP-Fbs was dialysed against low salt buffer and the glycans were also dissolved in the same dialysis buffer. A Nano ITC instrument (TA Instruments, Lindon, Utah) with 170 μl cell volume and 50 μl buret volume was used. Every 300 seconds, 2.97 μl of 90 μM glycan was automatically injected into 9 μM Fbs solution. The data was fitted using a single site binding model (Nanoanalyze software (TA Instruments, Lindon, Utah)), and the Kd was calculated.
Isothermal titration calorimetry analysis of SGP (Fushimi Pharmaceutical Co., Marugame, Japan) binding to SNAP-Fbs. SNAP-Fbs was dialysed against low salt buffer and SGP was also dissolved in the same low salt buffer. A Nano ITC instrument with 170 μl cell volume and 50 μl buret volume was used. Every 300 seconds, 2.97 μl of 270 μM SGP was automatically injected into 27 μM Fbs solution. The data was fitted using a single site binding model (Nanoanalyze software), and Kd was calculated. […]

Fetuin = Fetuin pull-down assay (Affigel-Fetuin beads, SDS-PAGE, ImageJ); assay type: binding; conditions: low salt buffer, cell lysates
From the text: Fetuin, which contains sialylated complex N-linked glycans, served as the complex N-linked glycomolecule in this example. Fetuin was conjugated to Affigel 15 resin (Bio-Rad, Hercules, Calif.), and then denatured by 6 M Guanidine HCL. After denaturation, the fetuin beads were washed with 50 bead volumes of low salt buffer to remove Guanidine HCL. This immobilized denatured Fetuin was used to screen Fbs mutants for improved affinity to complex N-linked glycomolecules in low salt conditions in a fetuin pull-down assay. In this assay, cell lysates containing the same amount of wild type or mutant Fbs protein were incubated with the same amount of fetuin beads at 4° C. for 1 hour. After incubation, the fetuin beads were washed three times with low salt buffer. The bound Fbs proteins were eluted by 1× gel loading buffer, and analyzed by SDS-PAGE. In the fetuin pull-down assay, the amount of Fbs mutant protein shown on the SDS-PAGE gel indicates the relative affinity of each Fbs mutant for binding to a complex N-linked glycomolecule. Fbs amino acid residue serine 155 was mutated to alanine to assess the effect on the interaction with complex N-linked glycomolecules. Mutation of Ser155 to alanine was expected to reduce the affinity of the interaction between Fbs and fetuin according to the published report of Tanaka et al. (Tanaka, et al. PNAS). […]

Fetuin and RNase B = experiment: Pull-down of Fetuin and RNase B mixture by immobilized Fbs beads; assay type: binding; conditions: input defined as 1
Protocol: The same amount of wild-type Fbs, Fbs GYR mutant and PPRYR mutant proteins were conjugated to SNAP capture resin using the conditions described in Example 2 (FIG. 10B). Binding to RNase B with high mannose N-glycan and Fetuin with sialyated complex N-glycan linked glycomolecules was analyzed in a single experiment. A mixture of denatured Fetuin and RNase B (denatured by boiling for 10 minutes in the presence of 1× Rapid PNGase F buffer (New England Biolabs, Ipswich, Mass.) were pulled down by the immobilized Fbs beads conjugated with equal amount of WT, GYR or PPRYR Fbs proteins (FIGS. 10A and 10B). The bound fetuin and RNase B were eluted by 1× gel loading buffer, and analyzed by -PAGE/Coomassie blue staining. The amount of fetuin or RNase B on -PAGE gels were quantified using Image J. The ratio of Fetuin to RNase B (Fetuin/RNase B) is arbitrarily defined as 1 in the input (FIG. 10A, Lane 7 and 10C). In low salt volatile buffer conditions, wild-type Fbs pulled down a very small amount of Fetuin (FIG. 10A, Lane1), and the Fetuin/RNase B is only 0.29 (FIG. 10C), which indicates biased N-glycan linked glycomolecule binding. […]

SGP-TMR = biological target: T2, SGP-TMR (Homo sapiens, UniProt Q9UK22); experiment: Elution of bound SGP-TMR from Fbs beads; conditions: 100 ul 2 M ammonium bicarbonate
T2 construct: His6 (N); made in house; host or cells: E. coli
T2 sequence (Q9UK22 with tags, fused parts or gaps): T1 sequence (Q9UK22 with tags, fused parts or gaps)
Protocol: N-glycan linked glycomolecules reversibly binds to Fbs beads. Different reagents were tested for releasing bound N-linked glycopeptides from Fbs beads. 100 μl Fbs beads with bound SGP-TMR were collected, washed with 300 μl low salt binding buffer once, and divided into three aliquots (30 μl beads each aliquot). 100 ul of 2 M ammonium bicarbonate (NH4HCO3), 50% acetonitrile, or 1% acetic acid were added to Fbs beads with bound SGP-TMR to elute SGP-TMR. The beads were centrifuged and supernatants were collected. The solvent in the supernatant was removed by vacuum evaporation using a speedvac, and SGP-TMR was reconstituted in low salt buffer. SGP-levels were measured as described in Example 9. […] 1% Acetic acid released approximately 65% of SGP-TMR. In contrast, less than 30% of bound N-glycan linked glycomolecules were released with 2 M ammonium bicarbonate.

[2] = Binding of 2-AB labeled M3N2 to SNAP-Fbs beads; conditions: low salt buffer, versus SNAP control beads
From the text: When PNGase F is used to trim N-glycans away from the peptides or proteins, the terminal GlcNAc residue becomes available for modification. A common modification is fluorophore labeling using 2-AB dye. The primary amino group of the dye performs a nucleophilic attack on the carbonyl carbon of the acyclic reducing terminal residue to form a partially stable Schiff's base. […] The conserved terminal GlcNAc residue is thus referred to as the “reducing end” of a glycan species. Upon 2-AB labeling, the carbohydrate ring structure is no longer capable of forming. Fifty picomoles of 2-AB labeled M3N2 in low salt buffer were incubated with SNAP-Fbs beads or SNAP control beads (SNAP Capture beads conjugated to SNAP-tag Purified Protein, New England Biolabs, Ipswich, Mass.).

[3] = biological target: T3, RNase B tryptic digest spiked with SGP (Homo sapiens, UniProt Q9UK22); experiment: Enrichment of N-glycopeptides from RNase B tryptic digest spiked with SGP (LC-MS); assay type: binding; conditions: low salt or high salt volatile buffer, TIC
T3 construct: His6 (N); made in house; host or cells: E. coli
T3 sequence (Q9UK22 with tags, fused parts or gaps): T1 sequence (Q9UK22 with tags, fused parts or gaps)
From the text: Fbs beads were used to capture and enrich N-glycopeptides from a complex mixture. The complex mixture was a tryptic digest of RNase B spiked with SGP to serve as a complex, sialylated glycopeptide. RNase B contains several non-glycosylated peptides and several different high mannose N-glycopeptides (labeled in the enlargement as: M5N2, M6N2). One hundred eighty-five micrograms RNase B was digested with 4 micrograms trypsin (New England Biolabs, Ipswich, Mass.) in trypsin digestion buffer and then filtered with a 10 kDa Microcon 10 centrifugal filter unit (Millipore, Billerica, Mass.) to remove trypsin and any undigested RNase B. PMSF (1 mM final concentration) was added to inhibit any residual trypsin. 100 micrograms SGP was added to the RNase B digest. Then immobilized binding reagent, SNAP-Fbs beads in this example, was mixed with the complex mixture and incubated at 4° C. for 1 hour in the presence of either low salt volatile buffer or high salt volatile buffer. The beads were washed with low salt volatile buffer or high salt volatile buffer, respectively. The bound N-glycopeptides were eluted using 50% acetonitrile, then lyophilized and analyzed by mass spec (LC-MS method). […] The dotted line indicates the chromatogram of the input mixture without enrichment. […]
The different peptides and N-glycopeptides present in the complex mixture described in Example 11 were quantified.

With CC(=O)N[C@H]1[C@H](O[C@H]2[C@H](O)[C@@H](NC(C)=O)C(O)O[C@@H]2CO)O[C@H](CO)[C@@H](O[C@@H]2O[C@H](CO[C@H]3O[C@H](CO)[C@@H](O)[C@H](O)[C@@H]3O)[C@@H](O)[C@H](O[C@H]3O[C@H](CO)[C@@H](O)[C@H](O)[C@@H]3O)[C@@H]2O)[C@@H]1O (stereo partly drawn) [M3N2, Man(α1-3)(Man(α1-6))Man(β1-4)GlcNAc(β1-4)GlcNAc] the Kd ([1]; read-out: Kd M3N2) was 123 ± 36 nM.

With CC(=O)N[C@H]1[C@H](O[C@H]2[C@H](O)[C@@H](NC(C)=O)C(O)O[C@@H]2CO[C@@H]2O[C@@H](C)[C@@H](O)[C@@H](O)[C@@H]2O)O[C@H](CO)[C@@H](O[C@@H]2O[C@H](CO[C@H]3O[C@H](CO)[C@@H](O)[C@H](O)[C@@H]3O)[C@@H](O)[C@H](O[C@H]3O[C@H](CO)[C@@H](O)[C@H](O)[C@@H]3O)[C@@H]2O)[C@@H]1O (stereo partly drawn) [M3N2F] the Kd ([1]; read-out: Kd M3N2F) was 128 ± 37 nM.

B1: S155A: human Fbs SBD variant with S155A mutation (protein)
chain: FYFLSKRRRNLLRNPCGEEDLEGWCDVEHGGDGWRVEELPGDAGVEFTHDESVKKYFASSFEWCRKAQVIDLQAEGYWEELLDTTQPAIVVKDWYSGRSDAGCLYELTVKLLSEHENVLAEFSSGQVAVPQDSDGGGWMEISHTFTDYGPGVRFVRFEHGGQDSVYWKGWFGARVTNSSVWVEP
modifications: left off: large carriers
notes: human Fbs SBD variant with S155A mutation
For B1, the “fetuin pull-down relative to wild type Fbs” value (Fetuin) was 1.5 fold.

B2: S155G: human Fbs SBD variant with S155G mutation (protein)
chain: B1 chain with A43G
modifications: left off: large carriers
notes: human Fbs SBD variant with S155G mutation
In the case of B2, the “fetuin pull-down relative to wild type Fbs” value (Fetuin) is reported as 2.0 fold.

B3: wtFbs: sugar binding domain (position 113 to 296) of human Fbs, SEQ ID NO: 2, tested as SNAP-tag fusion (SEQ ID NO: 3), free or on BG beads (protein)
chain: T1 sequence (Q9UK22 with tags, fused parts or gaps)
modifications: SNAP-tag fusion; optionally on BG beads
In the case of B3, the “Fetuin/RNase B ratio” value (Fetuin and RNase B; high salt volatile buffer (2 M ammonium acetate pH 7.5)) is reported as 0.92, the “Fetuin/RNase B ratio” value (Fetuin and RNase B; low salt volatile buffer (50 mM ammonium acetate pH 7.5)) is reported as 0.29 and the “bound N-glycan linked glycomolecules released” value (SGP-TMR) is reported as “less than 30%”. For the same molecule, the “binding of 2-AB labeled M3N2” value [2] was “disrupts the interaction” and the “enrichment of non-glycosylated peptides” value [3] was “not enriched”.

— patent US10507233B2, “Universal N-glycan binding reagent” (New England Biolabs, Inc., priority 2014, dated 2019)
